Assay: soluble on expression in E. coli; label from the status in PepcDB or PDB records

MSELYVAECNAAKARLEVETECRRIIADNYEKVLERAKEYSKKLEAPILAKICEVGYFCGAHVVRTNQVTMEMGANYYGECSIHTAEKILDRRVSEMRRQREEGLDSIRMLDDKIKFAQDNFSSVSIDGGPIEIVEKYDEEMEKLFYQNRKNKKMSQNDEQNEKIIEKNKLNGDQDHNDVMNRLEELEKLEQDNDEMEEAPIPKPFEVSNEDLQDLGKLEEVEEVEQDPTDKKLRFGMNERLLAQPGVTQKEMERLLDFLDTCDEESSDEEYDEDEEEGDDDEENLNNSVEELDSDDYASDDNIEKSNNSDQQLKSKKIETQVIKVEEIVEETVTKTTVKRKKSGVRFAQQLENVKTFHQTDTVEIKEEDSVIETKSILRSTEPTPVDRSALEPEQKELAAMSTMTFPGEIVEKNPYECEPSTSRDPAPVITEKKVSKFRASRHRN
soluble on expression in E. coli: not soluble

MGSDKIHHHHHHMITTARQLKDLIRNMSKKKSADAQILMRNYMMERFLERISLSEYKNQFILKGGMLVAAMVGLDARATMDLDATIKGTNVSVEDVEMIISQIISIPLDDGVSFRVKRISEIMEEADYPGVRVSMETKFDGVITPLKIDISTGDVITPREIKYKFNLMLEDRTIEVWAYNLETVLAEKLETVVSRNVTNTRMRDFYDIYILQKLYGEQLQKQVLWTALVATAKKRGTLDLIEAEDIREIFDEIESSPVMETLWKTYQKNYSYAADISWHAIVKSICALYGSILENMYNT
soluble on expression in E. coli: not soluble

MGSDKIHHHHHHMKNNNPPALGQKENAKHGEVFFPVQKYITRLAADYPVITTHWHDEAELTLITKGSCTYQIDLLEYEAKEGDIIFIPPLLLHSISIRDCDEFYSETYVFHINFLGGNNTDICSSRYLTPLINHEFAMPYLIAPKHPAYSSLCKCFMRITNLYSRQEFAYELALKAFLLQAIFLLLQYSEKNADFGVNTSSDKLKNVLDYIDVHYAESIQVAELAGLCYFSEYHFMRFFKKHMNMTCVQYINNVRLEKSVEQFERGNTSILDVSLSVGFHNLSYFHRAFKKRYHMTPLSFIKSLE
soluble on expression in E. coli: not soluble

MPAHSFRIAAIPGDGIGLEVLPEGIRVLEAAALKHGLALEFDTFEWASCDYYLQHGKMMPDDWAEQLKQYDAIYFGAVGWPDKVPDHISLWGSLLKFRREFDQYVNIRPVRLFPGVPCALANRKVGDIDFVVVRENTEGEYSSLGGIMFENTENEIVIQESIFTRRGVDRILKYAFDLAEKRERKHVTSATKSNGMAISMPYWDKRTEAMAAHYPHVSWDKQHIDILCARFVLQPERFDVVVASNLFGDILSDLGPACAGTIGIAPSANLNPERNFPSLFEPVHGSAPDIFGKNIANPIAMIWSGALMLEFLGQGDERYQRAHDDMLNAIERVIADGSVTPDMGGTLSTQQVGAAISDTLARLD
soluble on expression in E. coli: soluble

LKVREDENNPFYFRSSNSFQTLFENQNGRIRLLQRFNKRSPQLENLRDYRIVQFQSKPNTILLPHHADADFLLFVLSGRAILTLVNNDDRDSYNLHPGDAQRIPAGTTYYLVNPHDHQNLKMIWLAIPVNKPGRYDDFFLSSTQAQQSYLQGFSHNILETSFHSEFEEINRVLFGEEEEQRQQEGVIVELSKEQIRQLSRRAKSSSRKTISSEDEPFNLRSRNPIYSNNFGKFFEITPEKNPQLRDLDIFLSSVDINEGALLLPHFNSKAIVILVINEGDANIELVGIKEQQQKQKQEEEPLEVQRYRAELSEDDVFVIPAAYPFVVNATSNLNFLAFGINAENNQRNFLAGEKDNVVRQIERQVQELAFPGSAQDVERLLKKQRESYFVDAQPQQKEEGSKGRKGPFPSILGALY
soluble on expression in E. coli: soluble

MEVFLLKLDSKNCPNKRLKTLEEVPENTAITVGNFDGVHLGHRYLIENLKKKAKSENLKTLVLTFCPHPLKVLAPQLLPCELTDINEKIEIFRELGVDYLCFIRFDKEFAKIRAREFLEKIIYEKLKCRYLLVGYDWRYGYRREGEIELAKEVGSELGFEVEEAKPFKIKGHIVSSTLIRRLLREGRVEEVREYLGHNYWVKRKVVKGDQRGSKIGFPTANLQNTENLCLKEGVYAVKVEDKYLGVANYGYRPTFGKKKRVLEVHILDFEGNLRGKRIKVEFLKFIREEKKFSSVEELIQQIKKDVEAVKGLSKLEHHHHHH
soluble on expression in E. coli: soluble

MEFTGDLGLGHVTIRASTSSNIRSEVLMEGEYGFIGKSIPTDNPAGQRIIFCGGEGTSSTTGAQITLYGANNTDSRRIVYNGDEHLFQSADVKPYNDNVTALGGPSNRFTTAYLGSNPIVTANGERKTEPVVFDDAFLDAWGDVHYIMYQWLDAVQLKGNDARIHFGVIAQQIRDVFIAHGLMDENSTNCRYAVLCYDKYPRMTDTVFSHNEIVEHTDEEGNVTTTEEPVYTEVVIHEEGEEWGVRPDGIFFAEAAYQRRKLERIEARLSALEQK
soluble on expression in E. coli: soluble

LLLNLFNFRNFKDLFRNDINMMTVEEILYNEIKEFQASDRRAWMVIGDRYYRCENDILNRRIVRHTESGDIEDRSKANNRLAHGFVKNLVDEKIGYLLTKDYSLKCDNKEYIEKVKNVLGKYFQYTLTRLGYEASNKGIAWLQVYINEQGKFGMMIIPAEQCVPLWKDNTHTELYGMIRYYVQTVYEGKEKKQITRVEYYTDKEVYFYVLDNDHLIPDIEQYEGGPILHYKKGEEGRSWGKVPFIAWKNNHLEYPDVKFIKSLVDAYDKSRSEIDNFIEETKNLIYVLKGYGGENLSDFMKDLNYYRAIKIDDPEHGGVDTLTPKIDIQAAKEHFEQLKRDINEFGQGVPKDLDKYGNSPSGTALKFLYSGLDLKCNHLEVEFRQSFNQLLYFVNRYLAENGQGNYENENVELIFNRDIQINETETINNCVNSKGIISDETILANHPWVSDVEEELKQIEKERKSEEPPMFGEGDEE
soluble on expression in E. coli: soluble

GRLDHNVEAAMGDETKYARINANRSVSNDYQDGNGDSVHSSWERWNADLALGWKPTQDSWIELKGGKGNGEAAYAGRTMDGTQFQRESLGLHAEQKNLTDVIKKVEAQVDYSYNDHIMDNYKMRTPPMMPMAMEVTRRTLNARAAITTEWDRLNVISGVDSQRNKHAGNMYMRDANPIPPLDGDLRFESYGAFSEWTYRLNP
soluble on expression in E. coli: not soluble

MGHHHHHHSHMPKHPSQSTVCQKGTPNSASKTKDKVNKRNERGETRLHRAAIRGDARRIKELISEGADVNVKDFAGWTALHEACNRGYYDVAKQLLAAGAEVNTKGLDDDTPLHDAANNGHYKVVKLLLRYGGNPQQSNRKGETPLKVANSPTMVNLLLGKGTYTSSEESSTESSEE
soluble on expression in E. coli: soluble

MKLASYLQENIVVEKNGRFTIPIKKQYRSKVSGTVIDTSSSGATVFMEPKEVGALYEQLDDLLAAESYEVETILYTLTASVLAIEKELHLAMDIMHHYDVLFAKAKYGRSIDGVIPLEHHHHHH
soluble on expression in E. coli: not soluble

MMRGGMGNMNNMMKQMQKMQKEMAKAQEELGEKTVEGTAGGGMITVIANGHKQILEVKVKEEVVDPEDIEMLQDLVLAATNDALKKADELSNSTMGKFTKGLNLPGGMF
soluble on expression in E. coli: soluble

MKVEIGKIVNTHGIKGEIKVKSNSDFTETRFQPGELVIIERKNKEPLEFTIASYRMHKGLHMLTFEGINNINDIEYLKGETIMQERDHEEIELGEHEFYYSDIIGCTVFDDDDTPIGRVTEIFETGANDVWVVKGDKEYLIPYIADVVKDIDVEGRRIQITPMEGLLDLEHHHHHH
soluble on expression in E. coli: soluble

EDRVGERRIMIDKKEAIEHFRRHPGDGMIKLDLLTTAYNDINLIPPIYQPFLQDKQYFLGEVGQEPNTRMIYMSTFNQNGEEHPIILISLIDEIEITSTE
soluble on expression in E. coli: not soluble

MDNYQEITRYLDNAREILSTKANKEGQFYKDIKYVQMASGTAYNAALMIADEYLRKKEGAKFTKPNSIDEYRVRLNKHNKTLLAYLNRAYDMLHLAGYYHGTPSVGTIKQGMEAAQKMLALIEH
soluble on expression in E. coli: soluble

GVRNLAQGPRGCEHYDRACLLKAPCCDKLYTCRLCHDTNEDHQLDRFKVKEVQCINCEKLQHAQQTCEDCSTLFGEYYCSICHLFDKDKRQYHCESCGICRIGPKEDFFHCLKCNLCLTTNLRGKHKCIE
soluble on expression in E. coli: soluble

MGSDKIHHHHHHMLYTENLQSLIDSGKGYNVEFKVRVPSKVRELTEEICAFANADGGYLLIGVDDNGQVVDTNLENDKRSAIQGSISEISPALHCELYSVNVGNKTVWVIDVPSGKDKPYIFSGSIYVREGANSQKLRTAEEMRSFFQECNKIFFDHIPCHWFNIYTDADEQMIKGFRTEAKLSPSTPDKQIFENLELFIENGTAKNGAAMFFGKQPERKFPHAVTRCVLFKGTNKVYIIDDKTFGGSLYQQYLQAMSWLESKLQVAYKIEGAGPREEIWEIPLTVFKEAIINALSHRDYYEQGASIMIEMFDDRVEISNPGGLLPVVAKDFGHKSMTRNPLIFGLFTRMHLVERVASGIPRMQEAMREANLPEPEFHTEGMFTVVFKRKNTNSANRDIVNGIINGIVNENEQTILNLLKAKPGLNASEVAESLSKSWRTTMRYLKSLNDKGLVEFRGAPKTGGYYLTRNI
soluble on expression in E. coli: not soluble

MQSFTADINEINITNGKLDFSDSSLTPKFSAGIYSLNGDITGLSSNEDSRAKIDLKGKVDKYAPVIIKGSVNPLSHDAFTDIDMLFNGIELTTFTPYSGKFAGYAIDKGKLSLGLNYKLSNNKLVAENNVTLDQLTLGEVVNSEEATSLPIKFALSLLEHHHHHH
soluble on expression in E. coli: not soluble

MKGDHYSPNWPQLALSKKQSVNWVCERCGVQCLKPGEGKGLLKEERYRFRMAVHHCDYDPSNNSPSNLMALCSLCHLYYHRRQQGNISLGQLSLEFYLEHHHHHH
soluble on expression in E. coli: soluble

MTSDGMDEWPTGRLLSTAARLVEHSWEDILRSQNMTHAGLICLHTIADRPASQRDIAKVSRVTDQTISRTIDRLERAGYVTRETDPLDERRKRVAITESGRAIYRRLLALEKEDAALTAAVGDVGPLREQLLLLVRSLGLPTRD
soluble on expression in E. coli: not soluble

MSKPKYNRVVLKLSGEALAGEQGFGINPAVIKSVAEQVKEIAELDVEVAVVVGGGNIWRGKIGSEMGMDRAGADYMGMLATVMNSLALQDSLENIGIQTRVQTSIEMRQVAEPYIRRKAVRHLEKKRVVIFAAGTGNPYFSTDTTAALRAAEIEADVILMAKNNVDGVYNADPSIDPTATKYETLTYLDVLKEGLGVMDSTASSLCMDNDIPLIVFSVMEKGNIKRAVLGENIGTVVRGKLEHHHHHH
soluble on expression in E. coli: not soluble

MYATSTQKREWTYTPEKLAAMRLEINIKFRQKYESVMQPDELELFVTPEEELRMQRSIEDAALKFADKFRPHIWPSVKWTALAFFKRAFLVWVPSDTSIRMVMMACFYLAMKIDEFYITIEDFVKNMNVGEPRQNAERILKLEPELMKILDYNLTVHCPYRPYEGHLMDMKTRMLLLNFDLESIRRDSMRFFQNALQTDVLLLYPPSQIALAAINFGLHAQGKSDEILREFLRKLIGIEEDSWAHRDARPEDLEKLEKTVTRVNQIMREVDRNFVAVTEQERENHKSQLARIQALIPALDERRKEQWLAGGGVGLMPGELAEQPVDSDDEIN
soluble on expression in E. coli: not soluble

MGSDKIHHHHHHMDKLRAIQLFVRLADLGSFTRVAEQVNSSKSMISKEISRLEADLGTRLLHRSTRSVQLTHVGEGYLQRAREILSKLDDADNFVQDLQQNLRGKLKINAPMALGITDLSHLFADFMKANPEIELDIHLGDESVDLVEQGFDLGFRASSQPIDSNYVGRPLTRFTYKVCVSPDYLKMHSTITHPRDLKEHNCFIYSYFQGKNVWPIEGGIEVKGSLRVNNTMFMMESIKQGLGIGFIPDFVCQQAINSGQVVEVLADSKKSMLTLYALYPVRNFVPPKLVQCIEYLEQWFADKDKP
soluble on expression in E. coli: not soluble

MPLDVALKRKYYEEVRPELIRRFGYQNVWEVPRLEKVVINQGLGEAKEDARILEKAAQELALITGQKPAVTRAKKSISNFKLRKGMPIGLRVTLRRDRMWIFLEKLLNVALPRIRDFRGLNPNSFDGRGNYNLGLREQLIFPEITYDMVDALRGMDIAVVTTAETDEEARALLELLGFPFRK
soluble on expression in E. coli: soluble

Reference: the DeepSol protein solubility set
